Experimental data taken from paper PMC10465699, “Interaction patterns of methoprene-tolerant and germ cell-expressed Drosophila JH receptors suggest significant differences in their functioning” (Frontiers in Molecular Biosciences, 2023).

B2: Fushi tarazu factor-1 ligand-binding domain (Ftz-F1 LBD, 786-1027 aa) (domain or fragment, D. melanogaster, UniProt P33244 786-1027, looked up)
chain: ALIEPLRVSPMIREFVQSIDDREWQTQLFALLQKQTYNQVEVDLFELMCKVLDQNLFSQVDWARNTVFFKDLKVDDQMKLLQHSWSDMLVLDHLHHRIHNGLPDETQLNNGQVFNLMSLGLLGVPQLGDYFNELQNKLQDLKFDMGDYVCMKFLILLNPSVRGIVNRKTVSEGHDNVQAALLDYTLTCYPSVNDKFRGLVNILPEIHAMAVRGEDHLYTKHCAGSAPTQTLLMEMLHAKRKG
notes: 15N- or 13C,15N-labelled where it was the observed protein in NMR, unlabelled otherwise; also called LBD Ftz-F1; source: E. coli BL21(DE3), purified (Ni-NTA, thrombin digestion, SEC); not shown: His6, N-terminal, cleaved

Columns and labels:
Conditions in all cases: both partners purified
[1] = molecular target: B2; experiment: ITC; 1.06 mM Met^PEP titrated into 0.035 mM Ftz-F1 LBD; 25 C; 20 mM HEPES pH 6.8, 150 mM NaCl, 1 mM TCEP; duplicate, global fit to A + B = AB
[2] = molecular target: T1, Germ cell-expressed C-terminus (GceC, 661-959 aa) (D. melanogaster, UniProt Q9VXW7 661-959); experiment: NMR titration; 15N-HSQC of 15N Ftz-F1 LBD without and with an equimolar quantity of unlabelled MetC or GceC; 20 mM sodium phosphate pH 6.8, 50 mM NaCl, 1 mM TCEP, 0.5 mM EDTA; 29 C
T1 construct: Germ cell-expressed (Gce) protein, D. melanogaster, UniProt Q9VXW7, residues 661-959 (C-terminal fragment); No step that removes the His tag is described; also called Gce C-terminus
T1 sequence (looked up): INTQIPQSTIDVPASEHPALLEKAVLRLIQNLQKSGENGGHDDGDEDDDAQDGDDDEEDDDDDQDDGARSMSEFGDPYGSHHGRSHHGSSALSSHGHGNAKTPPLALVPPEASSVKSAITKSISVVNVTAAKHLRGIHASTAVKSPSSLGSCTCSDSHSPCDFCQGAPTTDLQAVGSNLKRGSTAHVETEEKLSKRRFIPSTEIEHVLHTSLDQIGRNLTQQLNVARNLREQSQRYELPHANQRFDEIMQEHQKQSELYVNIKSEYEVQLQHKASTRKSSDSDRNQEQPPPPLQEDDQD

[3] = molecular target: B2; experiment: NMR titration; 15N-HSQC of 150 uM 15N-MetC with unlabelled Ftz-F1 LBD at 0, 40, 82, 122, 199, 301 and 500 uM (cross-mixing); 20 mM Bis-Tris pH 6.5, 150 mM NaCl, 5 mM bME; 18 C

B1: Met^PEP, 19-residue peptide of the novel NR-box of MetC (peptide)
peptide: LERIVLYLIENLQKSVDSA
notes: 19-residue peptide representing the novel NR-box in the C-terminus of Met, D. melanogaster, UniProt Q9VYW2; also called MetC^PEP; source: synthetic peptide (PSL GmbH, Heidelberg)
- Kd [1]: 9.9 µM
- dH [1]: -1.1 kcal/mol
- stoichiometry N [1]: 1

Binder: B2
- binding result [2]: binds

B3: Methoprene-tolerant C-terminus (MetC, 509-716 aa) (domain or fragment, D. melanogaster, UniProt Q9VYW2 509-716, looked up)
chain: AGRQKVQEMKEKFSTIIKAEMPTQSSSPDLPASQAPQQLERIVLYLIENLQKSVDSAETVGGQGMESLMDDGYSSPANTLTLEELAPSPTPALALVPPAPSSVKSSISKSVSVVNVTAARKFQQEHQKQRERDREQLKERTNSTQGVIRQLSSCLSEAETASCILSPASSLSASEAPDTPDPHSNTSPPPSLHTRPSVLHRTLTSTLR
notes: Methoprene-tolerant (Met) protein, D. melanogaster, UniProt Q9VYW2, residues 509-716 (C-terminal fragment); 15N- or 13C,15N-labelled where it was the observed protein in NMR, unlabelled where it was added to 15N Ftz-F1 LBD; also called Met C-terminus; source: E. coli BL21(DE3), purified (Ni-NTA, on-column SUMO hydrolase digestion, SEC); not shown: His6, N-terminal, cleaved; SUMO, N-terminal, …
- binding result [3]: binds
